A protein production outcome set (Wang et al. 2014)

Test: label from the status in PepcDB records

| Sequence | protein production |
| --- | --- |
| MTNAGTTDLSWLPSDADEQLALGFKIVTNAYKTRVTSQEAEIRSLKGQLTEKQEQLSSIQKKYSNLEVQLIESTQRGNQLADENKQLITTIKKLNRDIDRLENLKKAVLNSIQEEHDVEDAHKYYSADDLLQTTAPRTMLEMNGNEDSCQSIINKIVNSDTHNIINGSFNSPYIGNVPLGEKNTDGRAFFRNARSRLSYEQFNQFLSNIKKLNNHQQKREETLKKAQAIFGEANLDLYEEFKVLISKHS | failed |
| MTNAIQDRLPRTTNSVEDTMALGARIAQGLSPGAVVALYGDLGTGKTHFVKGVAQGLGLPPAEVRSPTFTILAVHDDGDRPLYHFDAYRVQTPDEFVELGFETYVHGDGLTCIEWAGRVADLLPADTVPLQFHHVAPSTRRITLGAPLEHHHHHH | not failed |
| MTNDDSLKTYRAKRDFSVTPEPSGVASGKTAIKSTAKVLSFVVQKHWATRLHYDFRLELEGTMKSWAVPKGPSFDPNDKRMAVHVEDHPISYNSFEGEIPSGQYGAGKVIIWDKGTWIPLEDPHKGYRDGKLKFELRGLKLKGHWALVRMRKEENKKQEPWLLIKEKDEYVRSSREYSVVDEMPDSVAELDVPDVPQPSKASATSGSSSPKSSSIFRKGTKTTLPDNARKAELPRTLTPELATLVDEPPVDPEEWIYEIKFDGYRMLSRIEGGEVRLITRNGNDWSHKLPHLIKALGKLKLKSSWLDGEIAVLDENGIPDFQSLQNAFDSAHTESIIYYLFDVPFYEGYDLRDASLVERRALLQKLFEAHAPDEIRFSDVFDVSPAEILDSACRLGLEGVIGKRKTSVYVSRRSQDWIKLKCKNRQEFVIGGYTDPKGTRKGIGSLLLGYYDEDRKLRYAGNVGAGFSDKTLEDLRARLDRIALTDSPFVKANGLDKNAHWVEPRLIAEVSFGEWTRGGHIRHSVFHGLRSDKKADVIVREKPVHPAAKSAPASAIPKSLKVTNPDRVIDPSTGFTKVDLIRYYALVAPLMLPHLARRPVSLVRAPEGVSGELFFQKHWEKENMPGIEQLDPSLDPDHPPLLEVSTAEGLLSAVQMNVIEFHTWNATKNVIGKPDRIAFDLDPGSGVEWALIQESAQLVNVFLRELGLKSFLKTSGGKGLHIVVPIRRLRDWDTVKGFSQAIVQHLAKTIPTRFTAKSGPRNRVGKIFIDYLRNGFGATTVSAWSVRARPGLGVSVPLAWEELSSLKSSTRWSASNIHERLDKGNDPWADYAETNQSIVPAMKKLGFTPSSKA | failed |
| MTNIQKRFYKGRVALNVLANNIENAKDIFEAAEGYVVVGVLSKDYPTVEEAVTAMKAYGKEIDDAVSIGLGAGDNRQAAVVAEIAKHYSGSHINQVFPSVGATRANLGGKDSWINSLVSPTGKVGYVNISTGPISAAGEEKAIVPIKTAIALVRDMGGNSLKYFPMKGLAHEEEYRAVAKACAEEGFALEPTGGIDKENFETILRIALEANVEQVIPHVYSSIIDKETGNTKTEDVRELLAVVKKLVDQYA | not failed |
| MTNKYIKLCFIDLVDLKKMSKQNLKIVLFHGFMAREHMQRHWLCYLKKLGYSDIHLYGHLSSAEMLAKQIHSTQNSAQKLVLFGYSQGGFQAVKVAQAFEQLQLPVDLLITIAAGGKGRLLPKQWHYNPRHIPQNVVKSLNFFSLSDSLGTDRCYRDNLIQASHHDQCIENIIFDQSAQVGHIELSRCYSKQRIHGLVKQHLISRIEYELSILE | failed |
| MTNLLVIGATGNIGQPLIRDLQDDPDVHLFAGVHNSEHAKQALNGLKVQVRRFDFLDPATFEQALADIDKVFFVRPPQLAKPKEDMYPFLDALVARHVKQVVFVSLLGVAHNPMTPHHQIEKRIVELGLPYTFIRPSFFMQNLNTTHQADIVGHRDLFVPAGHARTSFIDTRDIGATAAVILRDPAYIGQKLDITGAQALTYADAAQIMTMELGVPITYSKPSLWRFRKVMLQRGLPKNYVNVMVMLYLITQLGNAKTVTTTLPNVLGRPAISFEQYVHDYRAEFLPKPLSLEHHHHHH | failed |
| MTNNTDIKNQTNPMSGDLLRQIIRLGFPVAIQSALVAILALADVLMVSDFGKEATAAVGIASKWHFVAIMIMAGLASANGTLVAQYWGRNDAVSAKTVTGIAIRFGLKVLIPVTLIITLGSELIMRLQTSDTRVIELGATYLWYAFPVLLLTHIVIVLEASMRSSGDTVTPLLMGAMTIVLNIGLNFWLIKGGFGIPAMGVAGAAFATTISRLFQVLAMIAYMRWRKHWLLEVKEGSERPSLWLSYRRLALPMTLGALLWAIGTMVYQMIFGHMGTTELAVFSMLGPFESLCYSIFFGISVACSVMIGQSLGRDAFEQAEHMAKFFIKAVFVFGISIGALLLLNRELIIAALNLDNPELYPLAAPAVMILCCAIWLRMLNMIIINGIIRAGGDNVFCLRMDFIAMWMTGLPLCAIAAFVLGWEFKYVYALMIAEEVVKLALCYRRYTQKYWIKNLTVVTTS | not failed |
| MTNPLNSTAANRSNQPSSDGISDGQITNEEAESLINKKNCSGHKLKEVTDSDTFSDNGKDDSDTKKRFHYHQDQRRMSLTSIVAVESPSSSNAPSRKTIDLGHGSDLIYIQRFLPFQQSWTFFDYLDKHIPWTRPTIRVFGRSCLQPRDTCYVASSGLTALVYSGYRPTSYSWDDFPPLKEILDAIYKVLPGSRFNSLLLNRYKGASDYVAWHADDEKIYGPTPEIASVSFGCERDFVLKKKKDEESSQARNKPTFVWCEPAGKTGDSGPAKKRLKRSSREDQQSLTLKHGSLLVMRGYTQRDWIHSVPKRAKAEGTRINLTFRLVL | not failed |
| MTNQDNNHQLNHRIYHFEKIYKAIKHVIVFIFMIFIAIVAIAVIAMSLYFHHLTKTSDSLSDDALIKKVRQIPGDELLDHNNKNLLYEYNHSQNSLIIGPKTSSPNVIKALTSSEDTLFYKHDGILPKAILRAMIQDIFNTDQSSGGSTITQQLVKNQVLTNEKTYSRKANELRLAIRLEHLLSKDEIIYTYLNIVPFGRDYNGANISGIASASYSLFGIPPKDLSIAQSAYLIGLLQSPYGYTPYEKDGTLKSDKDLKYSIQRQHYVLKRMLIEDQITEKEYNDALKYDIKSHLLNRKKR | failed |
| MTNQSHDDDDDDEQLPRSLFRLVSLPQKTMTNQTHDDDDDDEQLPLSLTLGSTSYSSQIRPVKSPVPIAPPPEFPGPVTTWPTPADFLATRSMVPDPPPPSHQIPLWMSNYFQQTPNPPQLVTHFFPPSGLAPPSSNLTPPPVKRPVTGSVRIYRSRSTVSKKSDTISPPFPWATNRRGEIQSLEYLESNQITTITGEVQCRHCEKVYQVSYNLRERFAEVVKFYLTEKRKMRDRAHKDWAYPEQRRCELCGREKAVKPVIAERKSQINWLFLLLGQTLGFCTLEQLKNFCKHSKNHRTGAKDRVLYLTYMGLCKMLQPKSDLFTCVAGKR | failed |
| MTNSGIILVASAALFWGLSGGIAGILINDDWNAVLVSFCRGAVGLIFVLMWLVLRPRNSGFTNGKLWLWSIIAGFGVSGNFAFYFFSISESSVAVAATLMYCAPIFVYLISFAIKIERPTLSKCAAILLVMAGVVLLTRVYQIDSSGITPIGVIAGLLSGMSLALFIFGFKYAARQGSPQAVLAIAFSTLTLALGTLIDIEEAGRVVNSADWPLFAILGVLGGGASFILYIIGLRRTLPALASIVATIEPVTAALFGVIILGEVLAYTQVLGMLIILATVTALGVYSSKQ | failed |
| MTNSKQKLVLASGSPRRLELLHQIGIEPARLMPMDIDETPVKLEHPRTLCRRLSQQKAEAAQAALKSEQAWKDAYVLGSDTVVAVGRRIVGKAEYTEEASAALHLLSGRSHWVYTGICLVTPDGKIRQKVAETKVRFKRLSTREIDAYIASGQWRGKAGAYGIQGIAGAFVQKLTGSYTNVVGLPLYETMSLLSGEGFEVTSGWLEG | failed |
| MTNSNNRQSEYPVDPLFLDRWSPRAFDGSPMPKEHLLTILDAAHWAPSASNHQPWRFVYAHKDSEDWPLFVELLMEGNQKWAKNASVLLFVISRDHTISHEGEKKPSATHSFDAGAAWFSLAMQAHLLGYHAHGMGGIFKDRIVEKLDIPDGFKVEAGVAIGTLTDKSILPDDLAEREVPSKRVPLADVAFEGRFTGKAD | not failed |
| MTNTIKKISTAQTYLNNNEIEKIIEVSKSLDLMASFYEADVFIDVLSKFDDEAIVVAHGRPKEKSMYCENVIGKKALIENEPGVIKCLKTGERVRDIKALTQEYKLVKQNIQPITLDDKVLAVLIVEKDISSEVKNEFNASEDEENKNLHQFIKLIGNNDFLVDNLNSAILIFDKNGKLKIKNRIATEIYKNLGFGYDIQDMHYNDLDIETNTFENILMDENYDETNEVSIGNMFFKIKTIYIKDDEFKVCKIVQDISDLKRKEEELVLKTVAIREAHHRVKNNLHTVISIIKKQSRLSQNDEVKQCLDNIINRVFAILSTHYLLSKEVDNNISIREGINLLVSNIQGGYLFSKDIDIRITGEDFKISGEKATAILLVINEILQNCYDHAFSDREHGTIQILINKDNDYRNIAIIDDGIGFDSNNINKNSLGTYIIDSYITQMLKGNIERKSSENGTEVLITIPTQINI | failed |
| MTNVLWLQGGACSGNTMSFLNAEEPTVCDLIADFGIKVLWHPSLGLELGDNVQTLLWDCILGKIPLDILVFEGTVVNAPNGTGEWNRFADRPMKDWLNDLAQAASFVVAVGDCATWGGIPAMEPNPSESQGLQFLKRKEGGFLGKDFRAKSGLPVINIPGCPSHPDWITQILVAIATGRIGDIALDELNRPQTFFNTFTQTGCTRNVHFAYKATTAEFGQRKGCLFYDLGCRGPMTHSSCNRILWNRVSSKTRAGMPCLGCTEPEFPFFDLKPGTVFKTQTIMGVPKELPPGVSNKNYAVLTMVAKDTAPKWAEEDFFTV | failed |
| MTNWKPLVSVITPSYNARDYIEDTVHSVLDQSHPHWEMIIVDDCSTDGTRDILQQYEKIDERIHVVYLEENSGAAVARNKALERAQGRYVAFLDSDDKWKKDKLEKQLEFMMERSCAFSFTGYSLMAQDGTPLDKFIHAPESLTYDDALKNTIIGCLTVMIDREQTGQIQMPNIRTRQDLATWLSLLKKGFTAYGMNECLAEYRLVNNSISSNKWKAAKKTWFVYREIERLHFMKATWCFVQYAKNAVKKRLLEHHHHHH | not failed |
| MTPFPHASLFTPHSSRITPSLHLPVRLGNATFDTRHRTALTMSADRLEQLKTFHEEDPEDPFTRYALAQEHLKHDNASRALALFEELVETDPDYVGTYYHLGKLYERLDRTDDAIDTYAQGIEVAREEGTQKDLSELQDAKLKAEGVGFD | failed |
| MTPFTQSQRIKALFWLSLFHLLVIISSNYLVQLPITIFGFHTTWGAFSFPFIFLATDLTVRIFGAPLARRIIFAVMIPALLVSYVVSSLFYMGAWQGFAALANFNLFVARIAAASFMAYALGQILDVHVFNRLRQNRRWWLAPTASTLFGNISDTLAFFFIAFWRSPDAFMAGHWMEIALVDYCFKVLISIIFFLPMYGVLLNMLLKKLADKSEISPLPAS | not failed |
| MTPHPRLSIGLPVYNGEEYLAESLDALLGQTYENFELVISDNASTDGTRDICRRYAAQDSRIRYIRLPRNIGAAPNHNYVFTECRGELFKWASHDDLYARDLLRSCVAALDERPEVVLAHAGQAVIDGDGKVKVPYEYGLATDSPRAPERFRSLLFEPGGDDFYGVMRSAMLRRVKPHDSYHHADRTFVAEITLHGPFHQVPELLYFRRDHPTRAERANPSKRSRCVNLDPRRAGPLHPTPRLLAEYVWGFASAIGRAPLSSADRRACHRHLAAWLTSRVRPGVGERVEDRAPVDPDRLTVSVDDLVAGREGRQALEHHHHHH | failed |
| MTPIAQRDGQAIQLVGFDGDDTLWKSEDYYRTAEADFEAILSGYLDLGDSRMQQHLLAVERRNLKIFGYGAKGMTLSMIETAIELTEARIEARDIQRIVEIGRATLQHPVEVIAGVREAVAAIAADYAVVLITKGDLFHQEQKIEQSGLSDLFPRIEVVSEKDPQTYARVLSEFDLPAERFVMIGNSLRSDVEPVLAIGGWGIYTPYAVTWAHEQDHGVAADEPRLREVPDPSGWPAAVRALDAQAGRQQ | not failed |
